From patent US20260201396, “New LoxPsym Sites for Large-Scale Orthogonal Cre-Mediated Recombination” (VIB VZW, published 2026)
Where a chain is given by its changes, count along the chain named.

T1: Cre recombinase (Punavirus P1)
T1 chain: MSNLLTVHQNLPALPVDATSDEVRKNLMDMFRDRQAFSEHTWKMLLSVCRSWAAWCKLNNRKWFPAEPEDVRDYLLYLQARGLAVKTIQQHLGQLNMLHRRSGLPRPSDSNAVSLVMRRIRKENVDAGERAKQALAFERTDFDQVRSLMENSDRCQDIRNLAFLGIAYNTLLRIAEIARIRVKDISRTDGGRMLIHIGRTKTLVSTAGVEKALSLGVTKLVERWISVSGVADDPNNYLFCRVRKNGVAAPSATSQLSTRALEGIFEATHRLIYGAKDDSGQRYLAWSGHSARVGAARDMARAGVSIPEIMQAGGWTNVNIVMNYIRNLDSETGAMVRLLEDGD

B1: LoxPsym-AAT (dsDNA)
DNA 1: ATAACTTCGTATAAATTAATTTATACGAAGTTAT
DNA 2: B1 DNA 1
B2: LoxPsym-GTA (dsDNA)
DNA 1: ATAACTTCGTATAGTATATACTATACGAAGTTAT
DNA 2: B2 DNA 1
B3: LoxPsym-GCC (dsDNA)
DNA 1: B2 DNA 1 with T15C, A16C, T19G, A20G
DNA 2: B2 DNA 1 with T15C, A16C, T19G, A20G
B4: LoxPsym-GTT (dsDNA)
DNA 1: B2 DNA 1 with A16T, T19A
DNA 2: B2 DNA 1 with A16T, T19A
B5: LoxPsym-GAC (dsDNA)
DNA 1: B1 DNA 1 with A14G, T16C, A19G, T21C
DNA 2: B1 DNA 1 with A14G, T16C, A19G, T21C
B6: LoxPsym-TAA (dsDNA)
DNA 1: B1 DNA 1 with A14T, T16A, A19T, T21A
DNA 2: B1 DNA 1 with A14T, T16A, A19T, T21A
B7: LoxPsym-TTA (dsDNA)
DNA 1: B2 DNA 1 with G14T, C21A
DNA 2: B2 DNA 1 with G14T, C21A
B8: LoxPsym-GCG (dsDNA)
DNA 1: B2 DNA 1 with T15C, A16G, T19C, A20G
DNA 2: B2 DNA 1 with T15C, A16G, T19C, A20G
B9: LoxPsym-CCC (dsDNA)
DNA 1: ATAACTTCGTATACCCTAGGGTATACGAAGTTAT
DNA 2: B9 DNA 1
B10: LoxPsym-CAT (dsDNA)
DNA 1: B1 DNA 1 with A14C, T21G
DNA 2: B1 DNA 1 with A14C, T21G
B11: LoxPsym-CCG (dsDNA)
DNA 1: B9 DNA 1 with C16G, G19C
DNA 2: B9 DNA 1 with C16G, G19C
B12: LoxPsym-TCC (dsDNA)
DNA 1: B9 DNA 1 with C14T, G21A
DNA 2: B9 DNA 1 with C14T, G21A
B13: LoxPsym-ACT (dsDNA)
DNA 1: B1 DNA 1 with A15C, T20G
DNA 2: B1 DNA 1 with A15C, T20G
B14: LoxPsym-CAG (dsDNA)
DNA 1: B1 DNA 1 with A14C, T16G, A19C, T21G
DNA 2: B1 DNA 1 with A14C, T16G, A19C, T21G
B15: LoxPsym-TGC (dsDNA)
DNA 1: B9 DNA 1 with C14T, C15G, G20C, G21A
DNA 2: B9 DNA 1 with C14T, C15G, G20C, G21A
B16: LoxPsym-CGC (dsDNA)
DNA 1: B9 DNA 1 with C15G, G20C
DNA 2: B9 DNA 1 with C15G, G20C
B17: LoxPsym-TAC (dsDNA)
DNA 1: B1 DNA 1 with A14T, T16C, A19G, T21A
DNA 2: B1 DNA 1 with A14T, T16C, A19G, T21A
B18: LoxPsym-TGG (dsDNA)
DNA 1: ATAACTTCGTATATGGTACCATATACGAAGTTAT
DNA 2: B18 DNA 1
B19: LoxPsym-TAG (dsDNA)
DNA 1: B18 DNA 1 with G15A, C20T
DNA 2: B18 DNA 1 with G15A, C20T

Molecular target: T1, Cre recombinase
Test: cell_activity; as above
Text: Similar to the development of the original LoxPsym site by Hoess et al. (1986 J Cell Biochem), we edited the spacer of the LoxP site to obtain new non-directional recombination sites. In doing so, we focused on altering the first three nucleotides of the spacer (FIG. 2), as it was shown before that changing the nucleotides at position 4 and 5 of the spacer (T and A respectively) prevents recombination (Hoess et al 1986). The last three nucleotides were adapted accordingly to ensure the spacer remained palindromic. As such, we were able to design maximally 63 new potential LoxPsym sites. To test if the Cre enzyme was still able to recombine the new LoxPsym variants, we conducted a fluorescent-based assay in yeast via genomic integration of a fluorescence cassette which was flanked by identical LoxPsym variants at both sites (FIGS. 3A and 3C). Recombination of functional LoxPsym variants enables the deletion of the fluorescence cassette. The fraction of non-fluorescent cells in the population after induction of Cre-mediated recombination, was used to determine the recombination efficiency of the new LoxPsym sites. To verify if this set-up is valid for estimation of the recombination efficiency, the dual-fluorescent-reporter system shown in FIG. 3A was used to assess the frequency of inversion/deletion over time. […] Recombination efficiencies largely altered between different LoxPsym variants (Table 1). 63 new LoxPsym variants were obtained with altering recombination efficiencies ranging from 13% to 89%.

Going from B1 to B2, the activity falls from 71.1% to 64.3%.

Going from B3 to B4, the activity falls from 65.1% to 64.6%.

Going from B5 to B6, the activity falls from 67.4% to 65.5%.

Going from B7 to B8, the activity rises from 35.8% to 79.2%.

Going from B9 to B10, the activity rises from 67.2% to 79.1%.

First: B11
Second: B12
The activity of the first is lower: 76% for the first, 80% for the second.

Going from B13 to B14, the activity rises from 70.5% to 79.9%.

First: B15
Second: B16
The activity of the first is higher: 72% for the first, 69.4% for the second.

First: B17
Second: B18
The activity of the first is higher: 75.3% for the first, 69.1% for the second.

In the case of B19, the activity is reported as 70.3%.
